For 54 variants, self-cleavage results are on record in the RNAGym collection of RNA variant scans (doi:10.7554/elife.80360).

The labels stand for the following.
B1: Twister Ribozyme (parent)
chain: AACACUGCCAAUGCCGGUCCCAAGCCCGGAUAAAAGUGGAGGGGGCGG

The variants in this data set derive from B1. The experiment in a line: self-cleavage, relative activity (ratio to wild type); higher = more cleavage; co-transcriptional.
With AACACUGCCAAUGCCGGUCCCAAGCCCGGCUAAAAGUGGAGGGCGCGG [A30C G44C], the self-cleavage came out at 0.874.

Consider AACACUGCCAAUGCCAGUCCCAAGCCCGGAUAAAAGUGGAGGGGGCCG [G16A G47C], for which the self-cleavage was determined as 0.351.

With AACACUGCCAAUGCCGGUCGCAAGCCCGGAUAAAAGUGGACGGGGCGG [C20G G41C], the self-cleavage came out at 0.0754.

As for AACACUGCCAAUGACGGUCCCAAGCCCGGAUAAAAGUGGAGGGGGCGC [C14A G48C], the self-cleavage turned out to be 1.04.

Turning to AACCCUGCCAAUGCCGGUCCCAAGCCCGGGUAAAAGUGGAGGGGGCGG [A4C A30G], the self-cleavage is 0.163.

As to AACACUGCCAAUGCCGGUCCCAAGCCCUGAUAAAUGUGGAGGGGGCGG [G28U A35U], the self-cleavage is 0.888.

Regarding AACACUGCCAAUGUCGGUCACAAGCCCGGAUAAAAGUGGAGGGGGCGG [C14U C20A], the self-cleavage was 0.154.

AACACUGCCAAUGCCGGUCCCAAGCCCGGAUAACCGUGGAGGGGGCGG [A34C A35C]: the self-cleavage was determined as 0.694.

As for AACACUGCCCAUGCCGGUCCCAAGCACGGAUAAAAGUGGAGGGGGCGG [A10C C26A], the self-cleavage is 0.664.

With AACACUGCCAAUGCCGGUCCCAAGCCCGGAUAAAAGUAGAGGGGGAGG [G38A C46A], the self-cleavage was 0.875.

In the case of AACACUGCCAAUGCCGGUCCUAAACCCGGAUAAAAGUGGAGGGGGCGG [C21U G24A], the self-cleavage was 0.102.

Regarding AACAGUGCCAAUGCCGGUCCCAAGCCCGGAUAAAAGUGGAGGGAGCGG [C5G G44A], the self-cleavage is 0.642.

Consider AACACUGCCAAUGCCCGUCCCAAGCCCGGCUAAAAGUGGAGGGGGCGG [G16C A30C], for which the self-cleavage amounted to 0.363.

On to GACACUGCCAAUGCCAGUCCCAAGCCCGGAUAAAAGUGGAGGGGGCGG [A1G G16A], for which the self-cleavage worked out at 0.5.

In the case of AACACUGCCAAUGCCGGUCCCAAGCCCGUAUCAAAGUGGAGGGGGCGG [G29U A32C], the self-cleavage is 0.836.

For the variant AACAAUGCCAAUGCCGGUCCCAAGCCCGGAUAAAAGUGCAGGGGGCGG [C5A G39C], the self-cleavage was found to be 0.149.

Turning to AAGACUGCCAAUGCCGGUCCCAAGCCCGGAUCAAAGUGGAGGGGGCGG [C3G A32C], the self-cleavage came to 0.379.

As to AACACUGCCAAAGCCGGUCCCAAGCACGGAUAAAAGUGGAGGGGGCGG [U12A C26A], the self-cleavage worked out at 0.763.

As to AUUACUGCCAAUGCCGGUCCCAAGCCCGGAUAAAAGUGGAGGGGGCGG [A2U C3U], the self-cleavage was 0.221.

For AACACUGCCAAUGCCGGUCCGAAGCCCGGAUCAAAGUGGAGGGGGCGG [C21G A32C], the self-cleavage was 0.0636.

Consider AACACUGCCAAUGCCGGUCCCAGGCCCGGAUAUAAGUGGAGGGGGCGG [A23G A33U], for which the self-cleavage was 0.393.

Consider AACACUGCCAAUGCCGGUCCCAAGCCCAGGUAAAAGUGGAGGGGGCGG [G28A A30G], for which the self-cleavage is 0.938.

As for AACACUGCCAAUGCCGGACCCAAGCCCGGAUAAAAGUGGAGGGGGUGG [U18A C46U], the self-cleavage came out at 0.617.

As for AACCCUGCCAAUGCCGGUCCCAAGCCCGGAUAAAAGUGGAGGGGUCGG [A4C G45U], the self-cleavage amounted to 0.0976.

Regarding AACACUGCCAAUGCCGGUCCCAAGCCUGGAUAAAAGUGGAGGGGGAGG [C27U C46A], the self-cleavage was found to be 0.825.

On to AACACUGCCAAUGCCGGUCCCAAGCCCGGAUAAAAGAGGAGAGGGCGG [U37A G42A], for which the self-cleavage stood at 0.129.

In the case of AACACUGCCAAUGCCGGUCCCAAGCCCGCAUACAAGUGGAGGGGGCGG [G29C A33C], the self-cleavage is 0.545.

As to AACACUGCCAAUGCCGGUCCCAAGCCCGAAUAAAAGUUGAGGGGGCGG [G29A G38U], the self-cleavage amounted to 0.634.

In the case of AACACUGCCAAUGCCGUUCCCAAGCCCGGAUAAAAGUUGAGGGGGCGG [G17U G38U], the self-cleavage came out at 0.158.

For AACACUGCCAAUGCCGGUCGGAAGCCCGGAUAAAAGUGGAGGGGGCGG [C20G C21G], the self-cleavage came out at 0.103.

For AACAAUGACAAUGCCGGUCCCAAGCCCGGAUAAAAGUGGAGGGGGCGG [C5A C8A], the self-cleavage came to 0.133.

As to AACACUGCCUAUGCCGGUCCCAAGCCCGGAUAAAAGUGAAGGGGGCGG [A10U G39A], the self-cleavage turned out to be 0.531.

In the case of AAGACUGACAAUGCCGGUCCCAAGCCCGGAUAAAAGUGGAGGGGGCGG [C3G C8A], the self-cleavage worked out at 0.174.

As for AACACUGCAAAUGCCGGUCCCAAGCACGGAUAAAAGUGGAGGGGGCGG [C9A C26A], the self-cleavage was 0.11.

Take AUCACUGCCAAUGCCGGUCCCAAGCCCGUAUAAAAGUGGAGGGGGCGG [A2U G29U]: the self-cleavage was determined as 0.484.

As for AACACUGCCAAUGCCGGUCCCGAGCCCGGAUACAAGUGGAGGGGGCGG [A22G A33C], the self-cleavage worked out at 0.147.

As for AACACUGCCAAUGCCGGUCCCAAGCCCGGAAAAUAGUGGAGGGGGCGG [U31A A34U], the self-cleavage stood at 1.07.

Regarding AACACUGCCAAUGCCGGUCCCAAGCCCGGAUAAAAGGGGAGGGGGCAG [U37G G47A], the self-cleavage worked out at 0.673.

AACGCUGCCAAUGCCGGUCCCAAGCCCGGAUAAAAGUGAAGGGGGCGG [A4G G39A]: the self-cleavage is 0.322.

Take AACACUGCAAAUGCGGGUCCCAAGCCCGGAUAAAAGUGGAGGGGGCGG [C9A C15G]: the self-cleavage is 0.0772.

For the variant AACACUGCCAAUGCCCGUCCCAAGGCCGGAUAAAAGUGGAGGGGGCGG [G16C C25G], the self-cleavage is 0.0947.

Turning to AACACUGUCAAUGCCGGUCCCAAGCCGGGAUAAAAGUGGAGGGGGCGG [C8U C27G], the self-cleavage amounted to 0.0565.

For the variant AACACUGCCUAUGCCGGUCCCAAGCCCGCAUAAAAGUGGAGGGGGCGG [A10U G29C], the self-cleavage was 0.617.

For AAUACUGCCAUUGCCGGUCCCAAGCCCGGAUAAAAGUGGAGGGGGCGG [C3U A11U], the self-cleavage was 0.428.

In the case of AACACUGCCAGUGCCGGUCCCAAGCCCGGAUAAAAGUGGAGGGGGCGA [A11G G48A], the self-cleavage came out at 0.884.

Regarding AACACUGCCAGUGCCGGUCCCAAGCCCGGAUGAAAGUGGAGGGGGCGG [A11G A32G], the self-cleavage was determined as 0.882.

In the case of AACACUGCCAAUGCCGGUCCCAAGCCCGGAUAAAAGUGGUGGGGGCUG [A40U G47U], the self-cleavage came out at 0.12.

AACACUGCUAAUGCCGGUCCCGAGCCCGGAUAAAAGUGGAGGGGGCGG [C9U A22G]: the self-cleavage amounted to 0.0671.

Turning to AACACUGCCAAUGCCGCACCCAAGCCCGGAUAAAAGUGGAGGGGGCGG [G17C U18A], the self-cleavage was 0.0862.

As for AACACUGCCAAUGCCGAUCCCACGCCCGGAUAAAAGUGGAGGGGGCGG [G17A A23C], the self-cleavage turned out to be 0.0909.

Regarding AACACUGCCAAUGUCGGUCCCAAGCGCGGAUAAAAGUGGAGGGGGCGG [C14U C26G], the self-cleavage came out at 0.235.

Take AACACUGCCAAUGCCGGUGCCAAGCCCCGAUAAAAGUGGAGGGGGCGG [C19G G28C]: the self-cleavage worked out at 0.108.

In the case of AACACUGACAAUGCCGGUCCCAAGACCGGAUAAAAGUGGAGGGGGCGG [C8A C25A], the self-cleavage is 0.0389.

As for AAUACCGCCAAUGCCGGUCCCAAGCCCGGAUAAAAGUGGAGGGGGCGG [C3U U6C], the self-cleavage turned out to be 0.0788.
